Reference: the supplement of paper PMC9170038

Test system: K4 kissing-loop RNA reporter
Experiment: apparent KD of K4 kissing-loop reporter; higher = weaker reporter binding
Conditions: Eterna round: R107
Method: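 RNA-MaP round R107: designed RNA switches with theophylline, tryptophan, arginine or FMN aptamers are transcribed on-chip within common flanks. They are titrated with a labelled K4 kissing-loop RNA reporter in RNA-MaP buffer (100 mM Tris pH 7.5, 80 mM KCl, 4 mM MgCl2), without ligand or with the indicated ligand. Median apparent KD per design.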

[1] = input ligand: theophylline 20 uM
[2] = input ligand: tryptophan 2.4 mM
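Also: bound reporter read as fluorescence of individual clusters on recovered sequencing chips by microscopy, with normalized cluster intensities fitted with a binding model.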

Sequence | apparent KD of K4 kissing-loop reporter (input ligand: FMN 200 uM) [µM] | apparent KD of K4 kissing-loop reporter (input ligand: arginine 13.2 mM) [µM] | apparent KD of K4 kissing-loop reporter (input ligand: none) [µM] | apparent KD of K4 kissing-loop reporter [1] [µM] | apparent KD of K4 kissing-loop reporter [2] [µM]
UCGAACGAUGGAAGGAGCGCUCGUCAGCCCUGCGAGUGAUGUUCGUGGGUAAAUAGUCGCGAGCAGGUAGGUCGCCAUCUUGAGC [Zainsotima] | 0.123 | 0.101 | 0.129 | 0.119 | 0.124
UCGGACCCUGGAGGAUAUGAGUCGAGUGAUGUUCGGCGGUCCAUGCCGGUGCGGCGUUAUGCCCUUUUAGAAGGCCAGGGUCCGA [#2 Exclusion - FMN B Attempt #11 (HarryS)] | 0.277 | 0.159 | 0.196 | 0.207 | 0.212
UCGGGAGGCCGAAGGAGCGCCGCCAGUGAUGUUGGGAGUUAGAUACCAGUGAUGUUGGGCCGGCAGGUAGGUCGCGGCCGCGGAU [Exclusion Arginine B Gf 18] | 0.201 | 0.106 | 0.147 | 0.168 | 0.153
UCGUCCGGAUUACUCGUGGUCAUGGUCGAUACCAGUAGAUUAAUCUACCCUUGGCAGCGACAUGAGUGAUGUUCAUGUGCAAUGA [KL-XTheo-A6 #analogue] | 0.383 | 0.341 | 0.36 | 0.492 | 0.383
UCUUUACCGGGAAGGAGCGUGAAUGAGAAUGGAUAUAGUGAUGUUAUGUAUACGAACGAAUCGCAGGUAGGUCGCCCGGAUCCCU [SSArgB.aB] | 1.15 | 0.316 | 0.643 | 0.685 | 0.485
UGACAUUGCUCAGAUACCAGACAUGAGCAUCAGCCAUGUGCCAAAUACGUACAAAUAAAUGUCCCUUGGCAGCUGAGCAAUGUCU [TheoBX 12] | 0.0667 | 0.0307 | 0.0375 | 0.08 | 0.0444
UGACAUUGCUCAGAUACCAGACCUGAGGAUCACCCAGGUGCCAAAACGUACUAAAUAAAGGUCCCUUGGCAGCUGAGCAAUGUCU [TheoBX 13] | 0.0636 | 0.0389 | 0.0273 | 0.101 | 0.0654
UGACAUUGCUCAGAUACCAGUCAUGAGGAUCACCCAUGGGCCAAAACGUACUAAAUAAAUGACCCUUGGCAGCUGAGCAAUGUCU [TheoBX 13] | 0.116 | 0.0369 | 0.0377 | 0.165 | 0.072
UGACGUAAAACCGUCGAAUCGCUGUGAGAAGGAGCGGUAAAAUUGCCAGGUAGGUCGCUCACAGCCUCACAGUGAUGUUGUGGGA [Sovetequ] | 0.468 | 0.104 | 0.246 | 0.199 | 0.162
UGACUACAAAGGAAAUAAUCCUAGUGAUGUUAGGAUAUGCUGAUAAGCAGAAGGAACUGAGAUCGAAAGAUCUCAAAUGUAGUCU [FmnAX 26 Mat Inspired #SwitchBubble #StaticStem #K4Early] | 0.131 | 0.0901 | 0.0849 | 0.0966 | 0.0882
UGACUGGACUGAAGGAGCGAGCGAGACAAAGUCUCGAAAUCCUAGUGAUGUUAGGAAAUAACUCAGGUAGGUCGCAGUCUAGUCU [ArgBS 9 #SwitchBubble #StaticStem] | 0.181 | 0.152 | 0.175 | 0.17 | 0.173
UGACUGGACUGAAGGAGCGCGCGAGACAAAGUCUCGAACUUCUAGUGAUGUUAGAAAAUAACGCAGGUAGGUCGCAGUCUAGUCU | 0.165 | 0.137 | 0.152 | 0.147 | 0.147
UGACUGGACUGAAGGAGCGCUAAAACUCCUAGUGAUGUUGGGAAAUAAGAGACAAAGUCUCAGCAGGUAGGUCGCAGUCUAGUCU [ArgBS 24 #SwitchBubble #StaticStem] | 0.481 | 0.462 | 0.503 | 0.657 | 0.526
UGACUGGACUGAAGGAGCGCUGAAGGAGCGUAAGUAGUGAUGUUGCUUACAGGUAGGUCGCAGCAGGUAGGUCGCAGUCUAGUCU | 0.0453 | 0.0371 | 0.0566 | 0.0443 | 0.0437
UGACUGGAUGGAAGGAGCGCUAAACUCCUAGUGAUGUUAGGGAUACGAGACAAAGUCUUGAGGCAGGUAGGUCGCCAUCUAGUCU [FiskerMod 11 - Jieux - Same State - Arginine B] | 0.162 | 0.13 | 0.147 | 0.157 | 0.138
UGACUGGAUUGAAGGAGCGCUAAACUCCUAGUGAUGUUAGGGACACAAGACAAAGUCUUGAGGCAGGUAGGUCGCAAUCUAGUCU [FiskerMod 5 - Jieux - Same State - Arginine B] | 0.345 | 0.253 | 0.288 | 0.31 | 0.265
UGACUUGCCUGAGGAUAUCUAGGAUAUCCAUAAAAGAAAAUAAUAAUCCAGUGAUGUUGGAGAAGGAGAGAAGGCAGGUAAGUCU [KL-XFMN-B17 #DoubleAptamer #SwitchBubble] | 0.176 | 0.114 | 0.119 | 0.112 | 0.119
UGAGGAGAAUAUGAUACCAGCAGAGAGAGAGAGGAAGUAUAGUGAUGUUAUAUGAGAGAAUGCCCUUGGCAGCAUAAGAAGAAGG [SSTheophylB.B] | 0.148 | 0.121 | 0.142 | 0.129 | 0.125
UGAGUUAGACAAAAGUCUAGCUCUGGUGAAGGAGCGUCCGAAAGGACAGGUAGGUCGCACCACCUGAGUGAUGUUCAGAAUCCUU [KL-SSArg-A22] | 0.67 | 0.506 | 0.789 | 0.762 | 0.468
UGAUACCAGACGGCCGCCACUCCCGUAAGUCAAAGACUUACGAAGAAGGUUUUUUAGUGAUGUUGGAGGACCGGGUCUGGUAUCU [FiskerMod 19 - Jieux - Exclusion - Tryptophan B] | 0.258 | 0.188 | 0.21 | 0.302 | 1.1
UGAUACCAGACUGAUACCAGCCACAGAGUCAAAGACUCUGAAAAGGAAACCAGUGAUGUUGGCCCUUGGCAGCAGUCUGGUAUCU [TheoBX 15 #SwitchBubble #StaticStem] | 0.191 | 0.176 | 0.171 | 0.152 | 0.164

Sequence | apparent KD of K4 kissing-loop reporter (input ligand: FMN 200 uM) [µM] | apparent KD of K4 kissing-loop reporter (input ligand: arginine 13.2 mM) [µM] | apparent KD of K4 kissing-loop reporter (input ligand: none) [µM] | apparent KD of K4 kissing-loop reporter [1] [µM] | apparent KD of K4 kissing-loop reporter [2] [µM]
UGAUACCAGACUGAUACCAGCCAGUGAUGUUGGCUAAGCCGAAGAGGUGUCAUAGACACCGGCCCUUGGCAGCAGUCUGGUAUCU [#07 K4 Theophylline B Exclusion] | 0.12 | 0.11 | 0.12 | 0.108 | 0.117
UGAUAGGACAGAAGGAGCGGAAGUGAUGUUUCCAAAAGGUAAAGGUGUCAAAAGACACCCUUCCAGGUAGGUCGCUGUCCUAUCU [ArgBX 12 #Palindromic #SwitchBubble #StaticStem] | 0.119 | 0.124 | 0.113 | 0.126 | 0.103
UGAUAGGACAGAAGGAGCGGUAGUGAUGUUACCAAAAGAAUAAGGUGUCAAAAGACACCCUACCAGGUAGGUCGCUGUCCUAUCU | 0.17 | 0.237 | 0.189 | 0.22 | 0.179
UGAUAGGACAGAAGGAGCGGUAGUGAUGUUGCCAAAAGGGUAAGGUGUCAAAAGACACCCUGCCAGGUAGGUCGCUGUCCUAUCU | 0.0997 | 0.0938 | 0.0985 | 0.0966 | 0.0819
UGAUAGGACAGAAGGAGCGGUAGUGAUGUUGCCAAAAGGUUAAGGUGUCAAAAGACACCCUACCAGGUAGGUCGCUGUCCUAUCU | 0.188 | 0.207 | 0.193 | 0.193 | 0.179
UGCAUGUGAAACAUGUAGGUGCUAGGUGAAGGAGCGAUCGAAAGAUCAGGUAGGUCGCACCUUCCUGAGUGAUGUUCAGGUAAUA [KL-SSArg-A2] | 0.0603 | 0.0317 | 0.0477 | 0.0552 | 0.046
UGCGGUAGUGAUGUUACCUCAUUAUACUAGCGAGGACCGGUACGGCCGCCACUCGACUUCCUCCACGCCUAGGCCUCUACGUUCA [theeternabot_sameState_KL_Trp_A_36] | 0.136 | 0.122 | 0.137 | 0.127 | 0.0982
UGGACGAUAUACGAUAAGUAUAUCUGGGAUACCAGUGACGAAAGUCACCCUUGGCAGCUCAACUGCCAGUGAUGUUGGUAGUCCA [#17 K4 Theophylline A Same State] | 0.192 | 0.153 | 0.135 | 0.182 | 0.126
UGGACUAGUGUGAGUGAUGUUCACUUCGAUACCAGCAGAGCGAUCUGCCCUUGGCAGCGAGUUAACUGCCGAAAGGCAAGGUCCA [Theo B SS t9a] | 0.457 | 0.478 | 0.477 | 0.457 | 0.382
UGGAUAUAGUGAUGUUAUAUAGAGAGUGAUACCAGUUUAGAGAAGAACCCUUGGCAGCAUAGAGAAGUAUCAUUAGAGAAGAAUG [ExTheophyl.Ap] | 0.22 | 0.208 | 0.233 | 0.24 | 0.18
UGGCGGCAAGGGUUAUUGGAAAGUAUUCGACGAGGACCGGUACGGCCGCCACUCGAACACCAGUGAUGUUGGUCUGGCUUAAGCC [Exclusion Tryptophan A GF 21] | 0.276 | 0.245 | 0.285 | 0.275 | 0.279
UGGGAUGGGCGAGGAUAUGGUGAUGUUUGGGUUGUUAGUGAUGUUGGUGAUGCUGGUGGUGUUUGUCCAGAAGGCGCGGUUUUUU [Bdazzled 3] | 0.154 | 0.0641 | 0.119 | 0.132 | 0.109
UGGGUGUAGUGAUGUUAUAUAGAGAGUGAUACCAGCGUAGAGAGAUGCCCUUGGCAGCAUAGAAGAGUAUCAUUGGAGGAGGAGG [ExTheophyl.Az] | 0.689 | 0.743 | 0.883 | 0.73 | 0.514
UGGGUGUAGUGAUGUUAUAUAGAGAGUGAUACCAGUUUAGAGAAGAACCCUUGGCAGCAUAGAAGAGUAUCAUUGGAGGAGGAGG [ExTheophyl.Av] | 0.361 | 0.413 | 0.336 | 0.268 | 0.289
UGGUAUAGUGAUGUUAUACCACUACCAGAUACCAGUGUAACAUUACGCCCUUGGCAGCUGAUCAGGGAACAUAUGGAGACAUAUG [Theo A Mod astro A#6] | 0.318 | 0.261 | 0.285 | 0.267 | 0.292
UGUACCGAGUCAGGAUAUCAACGACUGACAAAGUCGGUCGAAUAUCCAGUGAUGUUGGAAAAUAACUGAGAAGGGACUUGGUACU [FmnBS 13 #SwitchBubble #StaticStem] | 0.194 | 0.629 | 1.08 | 0.71 | 0.903
UGUACCGAGUCAGGAUAUCAUAAUAAUGCAGUGAUGUUGCAAUAACGACUGACAAAGUCGGUCGAUUGAGAAGGGACUUGGUACU [FmnBS 6 #SwitchBubble #StaticStem] | 0.127 | 0.118 | 0.129 | 0.11 | 0.126
UGUACCGAGUCAGGAUAUGGCGUCGAAAGACGAAACCAGUGAUGUUGGAAAAUCUGCGAAAGCAGUCCAGAAGGGACUUGGUACU [FmnBS 24 #SwitchBubble #StaticStem #DoubleMagnetSystem] | 0.193 | 0.236 | 0.302 | 0.227 | 0.226
UGUAUGGACUGAAGGAGCGCUAGGUAUGUGAGUGAUGUUCAUAUAAAUGUAUAAAGGGUUUGGCAGGUAGGUCGCAGUCCAUACU [KL-SSArg B6] | 0.213 | 0.122 | 0.227 | 0.154 | 0.188
UGUAUGUGAUUUGAUACCAGACCAGCUGGUGGUAUAUGAGUGAUGUUCAUGUUGGUUUGGGUCCCUUGGCAGCAAAUCGCAUACU [KL-SSTheoB10] | 0.271 | 0.183 | 0.217 | 0.213 | 0.212
UGUAUGUGAUUUGAUACCAGACCAGGUGGAGGAAUCUGAGUGAUGUUCAGGUAGGUUCUGGUCCCUUGGCAGCAAAUCGCAUACU [KL-SSTheoB19] | 0.166 | 0.133 | 0.168 | 0.15 | 0.16
